In the nanobody polyreactivity screen of Harvey et al. (2022):

Assay: yeast display, Sf9 membrane polyspecificity reagent, FACS + sequencing; frameworks hold sequencing errors
In short: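 Nanobodies came from a synthetic yeast display library in Saccharomyces cerevisiae BJ5465, induced with galactose for 36–48 hours and stained for 1 hour at 4 °C with 10% biotinylated, detergent-solubilized Sf9 membrane reagent. Cells were enriched on streptavidin microbeads and then FACS-sorted, with low and high (top ~1%) gates set on anti-HA fluorescence for expression and streptavidin fluorescence for reagent binding. Each polyreactivity label reflects the gate a clone came from. Genes were amplified by colony PCR, sequenced by MiSeq 2 × 250 and filtered by CDR length.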

Sequence | polyreactivity (PSR sort gate)
QVQLVESGGGLVQAGGSLRLSCAASGLTFWHYAMGWYRQAHGKERELVAAISSGGRTYYADSVKGRFTISRDNAKNTVYLKMNSLKPEDSAVYYCAARGPQYYVYGYDYWGQGTQVTVSS | high polyreactivity
QVQLVESGGGLVQAGGSLRLSCAASGLTFWNNAMGWYRQAPGKERELVARINNGDNTYYADSVKGRFTISRDNAKNTVYLQMNSLKPEDTAVYYCAAKRYSNIPWIHDISTFYYWGQGTQVTVSS | low polyreactivity
QVQLVESGGGLVQAGGSLRLSCAASGLTFWYYAMGWYRQAPGKERELVAAITISGGSTYYADSVKGRFTISRDNAKNTVYLQMNRLQPEDTAVYYCAKTFSYTGRYWGYDYWGKGTQVTVSS | high polyreactivity
QVQLVESGGGLVQAGGSLRLSCAASGLTFYANAMGWYRQAPGKERELVATISVGTDSTNYADSVKGRFTISRDNAKYTVYLQMNRLKPEDTAVYYCNALYEEYYAQDPYDYWGQGTQVTVSS | high polyreactivity
QVQLVESGGGLVQAGGSLRLSCAASGLTFYGYGMGWYRQAPGKERELVASITSGGNTYYADSVKGRFTISRDNAKNTVYLRMNSLKPEDTAVYYCAVTAIALYYSSGYYWGQGTQVTVSS | low polyreactivity
QVQLVESGGGLVQAGGSLRLSCAASGLTFYHYAMGWYRQAPGKERELVADISSGGSTSYADSVKGRFTISRDNAKNTVYLQMNSLKPEDTAVFYCAADYTWERYHRQIFRLDYWGQGTQVTVSS | low polyreactivity
QVQLVESGGGLVQAGGSLRLSCAASGLTFYLYAMGWYRQAPGKERELVAAISSSGSSTYYADSVKGRFTISRDNAKHTVYLQMNSLKPEDTAVYYCAAVASRGWGRYGYWGQGTQVTVSS | high polyreactivity
QVQLVESGGGLVQAGGSLRLSCAASGLTFYLYAMGWYRQAPGKERELVAAITTSGGSTYYADSVKGRFTISRDNAKNTVYLQMNSLKPEDTAVYDCATQGAIRGYGYWGQGTQVTVSS | high polyreactivity
QVQLVESGGGLVQAGGSLRLSCAASGLTFYQYAMGWYRQAPGKERELVAAISKSAGSTYYADSVKGRFTISRDNAKNTVYLQMNSLKPEDTAVYYCNAARPFTRVPRQTWKMGYWGQGTQVTVSS | high polyreactivity
QVQLVESGGGLVQAGGSLRLSCAASGLTFYRYAMGWYRQAPGKERELVAAISFSGGSTYYADSVKGRFTISRDNAKNTVYLQMNSLKPEDTAVYYCAKVDTPGSQRYITPEEGPEYDYWGQGTQVTVSS | high polyreactivity
QVQLVESGGGLVQAGGSLRLSCAASGLTFYRYAMGWYRQAPGKERELVAAISSSGGSTYYADSVKGRFTISRDNAKNTVYLQMNSLKPEDTAVYYCAAKRVSVPYGYWGQGTQVTVSS | high polyreactivity
QVQLVESGGGLVQAGGSLRLSCAASGLTFYSYAMGWSRQAPGKERELVAAITSSGSITYYADSVKGRFTISRDNAKNTVYLQMNSLKPEDTAVYYCAARPYRVRGQRFEGNYWGQGTQVTVSS | high polyreactivity
QVQLVESGGGLVQAGGSLRLSCAASGLTFYSYAMGWYRQAPGKERELVAAITWSGGGTYYADSVKGRFTISRDNAKNTVYLQMNSLKPEDTAVYYCAALSYNGVRYYYWGQGTQVTVSS | high polyreactivity
QVQLVESGGGLVQAGGSLRLSCAASGLTFYSYAMGWYRQAPGKERELVAAITWSGGGTYYADSVKGRFTISRDNAKNTVYLQMNSLKPVDTADYYCAADYWGYDIYYGLTERESWGQGTQVTVSS | high polyreactivity
QVQLVESGGGLVQAGGSLRLSCAASGLTFYTYAMGWYIQAPGTERELVAAISSGGSTNYADSVKGRFTISRDNAKNTVYLQMNSLKPEDTAVYYCAADPSYYTYFSFDLSESDYWGQGTQVTVSS | low polyreactivity
QVQLVESGGGLVQAGGSLRLSCAASGLTFYTYAMGWYRQAPGKERELVAAISTNGGSTYYADSVKGRFTISRDNAKNTVYLQMNSLKPEDTAVYYCAKEGGTYRIFNYWGQGTQVTVSS | low polyreactivity

Sequence | polyreactivity (PSR sort gate)
QVQLVESGGGLVQAGGSLRLSCAASGLTFYTYPMGWYRQAPGKERELVAAISSGGSTNYADSVKGRFTISRDNAKNTVYLQMNSLTPEDTAVYYCAADPSYFTYFSFDLSESDYWGKGTQVTVSS | low polyreactivity
QVQLVESGGGLVQAGGSLRLSCAASGLTFYVYAMGWYRQAPGKERELVAAISSGGRTYYADSVKGRFTISRDNAKNTVYLQMNSLKPEDTAVYYCAAVRHRNYGYWGQGTQVTVSS | high polyreactivity
QVQLVESGGGLVQAGGSLRLSCAASGLTFYYYAMGWYRQAPGKERELVAAISRSGGSTYYADSVKGRFTISRDNAKNTVYLQMNSLKPEDTAVYYCAAYGPASVYEVAMDYWGQGTQVTVSS | high polyreactivity
QVQLVESGGGLVQAGGSLRLSCAASGLTFYYYTMGWYRQAPGKERELVAAITSGGSTYYADSVKGRFTISRDNAKNTVYLQMNSLKPEDTAVYDCAAVPSRYGRYRYYYWGQGTQVTVSS | high polyreactivity
QVQLVESGGGLVQAGGSLRLSCAASGLTIITNAMGWYRQAPGKERELVAAISGTGGSTYYADSVKGRFTISRDNAKNTVYLQMNSLKPEDTAVYYCAAAPYTFWVGDSWGQGTQVTVSS | high polyreactivity
QVQLVESGGGLVQAGGSLRLSCAASGLTILDNAMGWYRQAPGKERELVATISGGGSTYYADSVKGRFTISRDNAKNTVYLQMNSLKPEDTAVYYWNAAYVGGPWWYRYTYNYWGQGTQVTVSS | low polyreactivity
QVQLVESGGGLVQAGGSLRLSCAASGLTIRYYAMGWYRQAPGKERELVAAITRGGSTYYADSVKGRFTISRDNAKNTVYLQMNSLKPDDTAVYYCAAYDVRYNTYDYDYWGQGTQVTVSS | high polyreactivity
QVQLVESGGGLVQAGGSLRLSCAASGLTIWRYAMGWYRQAPGKEREFVATISQNGGRTYYADSVKGRFTISRDNAKNTVYLQMQSLKPEDTAVYYCAADDWRWGYDYWGQGTQVTVSS | high polyreactivity
QVQLVESGGGLVQAGGSLRLSCAASGLTLAWYAMGGYRQAPGKERELVAAISWSGDSTYYADSVKGRFTISRDNAKNTVYLQMNSLKPEDTAVYYCATRVYGGYGYWGQGTQVTVSS | high polyreactivity
QVQLVESGGGLVQAGGSLRLSCAASGLTLRRYAMGWYRQAPGKEREMVASINSGTSTKYADSVKGRFTISRDNAKNTVYLQMNSLKPEDTAVYYCGAAGYFPTAGSRRAYYYWGQGTQVSVSS | high polyreactivity
QVQLVESGGGLVQAGGSLRLSCAASGLTLTYYAMGWYRQAPGKERELVAAISRSGGSTHYADSVKGRFTISRDNAKNTVYLQMNSLKPEDTAVYYCNAQQGRYWSAKGYDYWGQGTQVTVSS | high polyreactivity
QVQLVESGGGLVQAGGSLRLSCAASGLTLYRNAMGWYRPAPGKVRELVAAITKSGARTYYADSVKGRFTISRDNAKNTVYLQMNSLKPEDTAVYYCAADALNTYNYWGQGTQVTVSS | high polyreactivity
QVQLVESGGGLVQAGGSLRLSCAASGLTLYYYAMGWYRQAPGKERELVAAISYSGGSTYYADSVKGRFTISRDNAKNTVYLQMNSLKPEDTAVYYCAADGDSDIRDDYWGQGTQVTVSS | low polyreactivity
QVQLVESGGGLVQAGGSLRLSCAASGLTSTDNAMGWYRQAPGKERELVAGITTGGSTYYADSVKGRFTISRDNAKNTVYLQMNSLKPEDTAVYYCNAPTYADTTYDYWGQGTQVTVSS | low polyreactivity
QVQLVESGGGLVQAGGSLRLSCAASGMGWYRQAPGKERELVARISGGVSTNYADSVKGRFTISRDNAKNTVYLQMNSLKPEDTAVYYCAADPLDTYDYWGQGTQVTVSS | low polyreactivity
